Test [1] deals with T1, human full-length Galectin-1 (human, UniProt P09382 2-135).
T1 construct: full-length; Histidine-tagged; also called Hu-Gall; Gall
Nature of the test: ELISA on His-tag-immobilised antigen (3 µg/mL), periplasmic extract with scFv, anti-scFvTag.HRP, OD 450 nm. As to the method: (§1) Hu-Gal3-FL, Hu-Gal3-CRD, m-Gal3-FL, Hu-Gall and Hu-Gal7 were immobilized at 3 μg/mL final concentration through their histidine tag on functionalized microplates following internal process. Periplasmic extracts containing scFvs were added into the wells and detected with an anti-scFvTag.HRP (horseradish peroxidase) antibody. Rabbit antibodies directed against Gal3 (ab53082-abcam reference), Gall (ab25138-abcam reference), and Gal7 (ab108623-abcam reference) were used at 5 μg/mL as antigen-coating positive controls and detected with an anti-rabbit.HRP secondary antibody (7074S-Cell Signaling reference).

The target in test [2] is T2, human full-length Galectin-7 (human, UniProt P47929 1-136).
T2 construct: full-length; Histidine-tagged; also called Hu-Gal7; Gal7
T2 sequence (P47929 whole entry): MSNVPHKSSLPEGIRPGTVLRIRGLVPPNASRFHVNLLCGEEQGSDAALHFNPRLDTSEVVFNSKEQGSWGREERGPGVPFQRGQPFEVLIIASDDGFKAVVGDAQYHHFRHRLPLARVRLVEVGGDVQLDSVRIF
Described as above. As to the method: as §1

Test [3] has as its target T3, full length human Galectin-3 (human, UniProt P17931 2-250).
T3 construct: Printed as 'full length'; recombinant, immobilized through a histidine tag; also called hu-Gal3-FL; Hu-Gal3-FL
Nature of the test: SPR Biacore T-200, antibody captured by anti-human Fc, Gal3 in solution. The procedure:
The CM5 sensor surface was first immobilized with an anti-human Fc mAb using a standard protocol. The entire sensor surface was first activated by injecting a 1:1 (v/v) mixture of 400 mM EDC and 100 mM NHS at a flow rate of 10 μL/minute for 7 minutes. Monoclonal anti-human Fc antibody (Millipore AP113), 25 μg/mL in Na acetate pH5, 360 s were flowed at 10 μL/minute to reach 10000 RU on both flow cells followed by the injection of 1 M ethanolamine, pH8.5 for 7 minutes at a flow rate of 10 μL/minute. During the entire immobilization procedure, HBS-P was used as the running buffer.
Antibody samples were prepared at 5 μg/ml and were injected for 30 seconds at 10 μL/minute. In general, 400 to 680 resonance units of antibodies were captured on the chip.

Residue numbers refer to the chain shown, from its start.

T3 sequence (P17931 2-250 limits assumed): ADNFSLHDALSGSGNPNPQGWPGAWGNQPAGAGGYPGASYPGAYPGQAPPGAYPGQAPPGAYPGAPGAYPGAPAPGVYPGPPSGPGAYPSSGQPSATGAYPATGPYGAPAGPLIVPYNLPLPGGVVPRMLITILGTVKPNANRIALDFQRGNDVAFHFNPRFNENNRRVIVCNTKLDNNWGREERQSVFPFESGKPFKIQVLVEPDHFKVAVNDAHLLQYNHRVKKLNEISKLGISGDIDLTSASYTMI
T1 sequence (P09382 2-135 limits assumed): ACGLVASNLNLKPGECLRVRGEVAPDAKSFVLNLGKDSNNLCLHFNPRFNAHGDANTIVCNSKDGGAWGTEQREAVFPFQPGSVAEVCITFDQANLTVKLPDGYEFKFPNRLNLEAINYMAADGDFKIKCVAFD

B1: anti-Gal3 scFv G03 (scFv, V domains shown, not shown: small tags and cut ends)
VH: EVQLVESGGSLVKPGGSLRLSCAASGFTFSNYAMNWVRQAPGKGLEWISSIYGSSRYIYYADFVKGRFTISRDNAKNSLYLQMNSLRAEDTAVYYCVRSYNGGMDVWGRGTLVTVSS
VL: QSVLTQPASVSGSPGQSITISCAGTSSDVGGYYNVAWYQQHPGKAPKLMIYYDSYRPSGVSNRFSGSKSGNTASLTISGLQAEDEADYYCSSSTGYSTRVFGGGTKLEIK
notes: Periplasmic extract from E. coli; also called G03 (scFv)
Regarding B1, the binding result in test [1] and in test [2] was “no binding” each time.

B2: anti-Gal3 scFv E01 (scFv, V domains shown, not shown: small tags and cut ends)
VH: EVQLVESGGSLVKPGGSLRLSCAASGFTFSNNYMNWVRQAPGKGLEWISNINGASRNIAYADFVKGRFTISRDNAKNSLYLQMNSLRAEDTAVYYCVRSSDYDGGMDVWGRGTLVTVSS
VL: B1 VL with Y32N, Y33S, N34Y, A36S, G95Y, Y96G
notes: Periplasmic extract from E. coli; also called E01 (scFv)
Consider B2, for which the binding result in test [1] and in test [2] was “no binding” throughout.

B3: anti-Gal3 scFv H10 (scFv, V domains shown, not shown: small tags and cut ends)
VH: EVQLVESGGSLVKPGGSLRLSCAASGFTFSNYYMNWVRQAPGKGLEWISYINGASRDISYADFVKGRFTISRDNAKNSLYLQMNSLRAEDTAVYYCVRSSYGYSNYGSGMDVWGRGTLVTVSS
VL: B1 VL with Y32S, Y52N, S54A, Y55N, S93N, G95A, Y96D
notes: Periplasmic extract from E. coli; also called H10 (scFv)
Take B3: the binding result in test [1] and in test [2] was “no binding” in each case.

B4: anti-Gal3 variant antibody D06-G2 (antibody, V domains shown)
VH: B1 VH with S10G, A33N, I48V, F63S, Y100G, N101Y
VL: B1 VL with V3A, A23T, Y33N, N34G, A36S, S93G, G95D, G103Q
notes: Variant of D06 with framework mutations to germline; captured by anti-human Fc in SPR
As to B4, the equilibrium dissociation constant (Kd) in test [3] is 6.8 nM. In other words, the single-digit nanomolar range.

B5: anti-Gal3 variant antibody E07-G2 (antibody, V domains shown)
VH: B1 VH with S10G, A33N, I48V, S50N, F63S, N101Y
VL: QSALTQPRSVSGSPGQSVTISCTGTSSDVGGYYSVSWYQQHPGKAPKLMIYYDSNRPSGVPDRFSGSKSGNTASLTISGLQAEDEADYYCSSYTGYSTRVFGQGTKLEIK
notes: Variant of E07 with framework mutations to germline; captured by anti-human Fc in SPR
B5 displayed a Kd in test [3] of 15 nM.

B6: anti-Gal3 variant antibody E07-G1 (antibody, V domains shown)
VH: B1 VH with S10G, A33N, S50N, F63S, N101Y
VL: B5 VL
notes: as for B5
B6: the dissociation constant Kd in test [3] worked out at 12 nM. This Kd and that of the molecule before are within 1.5-fold of each other.

B7: anti-Gal3 scFv D06 (scFv, V domains shown, not shown: small tags and cut ends)
VH: B1 VH with A33N, Y100G, N101Y
VL: B1 VL with Y33N, N34G, A36S, S93G, G95D
notes: Periplasmic extract from E. coli HB2151 (pHEN phagemid); also called D06 (scFv)
As to B7, the binding result in test [1] and in test [2] was “no binding” each time.

B8: anti-Gal3 variant antibody D11-G2 (antibody, V domains shown)
VH: B1 VH with S10G, A33N, I48V, F63S, Y100S, N101Y
VL: B1 VL with V3A, A23T, Y32S, S93Y
notes: Variant of D11 with framework mutations to germline; captured by anti-human Fc in SPR
B8: the dissociation constant (Kd) in test [3] was 18 nM.

B9: anti-Gal3 scFv H07 (scFv, V domains shown, not shown: small tags and cut ends)
VH: B1 VH with A33N, S50N, Y52D, N101Y
VL: B1 VL
notes: Periplasmic extract from E. coli; also called H07 (scFv)
In the case of B9, the binding result in test [1] and in test [2] was “no binding” throughout.

B10: anti-Gal3 variant antibody D06-G1 (antibody, V domains shown)
VH: B1 VH with S10G, A33N, F63S, Y100G, N101Y
VL: B1 VL with V3A, A23T, Y33N, N34G, A36S, S93G, G95D, G103Q
notes: as for B4
B10 displayed a Kd in test [3] of 9.6 nM.

B11: anti-Gal3 scFv E07 (scFv, V domains shown, not shown: small tags and cut ends)
VH: B1 VH with A33N, S50N, N101Y
VL: B1 VL with N34S, A36S, Y55N, S93Y
notes: Periplasmic extract from E. coli; also called E07 (scFv)
As for B11, the binding result in test [1] and in test [2] was “no binding” throughout.

B12: anti-Gal3 variant antibody D11-G1 (antibody, V domains shown)
VH: B1 VH with S10G, A33N, F63S, Y100S, N101Y
VL: B1 VL with V3A, A23T, Y32S, S93Y
notes: as for B8
B12 had an equilibrium dissociation constant (Kd) in test [3] of 15 nM.

B13: anti-Gal3 scFv E12 (scFv, V domains shown, not shown: small tags and cut ends)
VH: B1 VH with Y57S, Y100N, G102A
VL: B1 VL with N34D, A36S, S93Y, G95S
notes: Periplasmic extract from E. coli; also called E12 (scFv)
Take B13: the binding result in test [1] and in test [2] was “no binding” in each case.

The record behind these values is US20250215091A1, “Anti-GAL3 Antibodies and Compositions” (Les Laboratoires Servier, priority 2022, published 2025).
